Assay results from a protein production outcome set (Wang et al. 2014).

Assay: label from the status in PepcDB records
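Note: failed if final PepcDB status was selected cloned or expressed and not failed if soluble or beyond.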

| Sequence | protein production |
| --- | --- |
| FFSNAEVAERLAYPQLIEALRIGLAKPCSAPLRNCHALPAQASLLQMPVWQAGAGIGVKLVTVFPGNGARGLPAVAAVFALFDGEDGRPLALLEASELTARRTACSSALAADYLARDDARRLLVVGCGTLAAHMVRAHACVRDYRHIDIWGRDPAKAAALAARLREEGYPARAADGLRAAVEAADCVSCVTTSREALVRGAWLKPGVHLDLVGAFLPSMRETDVLAVARARVVVDTRAGALEEAGDLLQAIAEGAIGREAISTELRDLLSGAGRRGDPGEITLFKSVGYALEDLVAARRVV | failed |
| FKAVTYVADPVDVTYQSLNVSVPVEIDGKAVDASHAPIVFSNAVGGYMPSSTAGNTGIGQGVNAKLSLASGFVVVDPGARGRTLVDTAGVYYGVAPAAIVDLKAAIRYLRHNKGRVPGDTDRIVATGVSAGGALTSLLGASGDSDRYAPYLQELGAADASDAVFAAAPYCPITDLEHADMAYEWNWGTNPLPTGAQVDQTLSKELRSGFAEYQASLNLRGKNGFGRITARNYDAYMVKTHLEPSATRYLGALPDADRAAYLTANPWITWSGGRASFGWGDFLTHVGARKKNVPSFDTFTLAAPENNLFGVATTKARHFTQWSLRKATGDDGARLDADLPEKIDLMNPMYFIEHQNPGRSRHWFIRVGTKDSDTSLTVVGNLTAGLENLGDDVDTYMYWDGGHGANQDAPDFITWIRSVSG | failed |
| FLSTRDNVDELRKIENKSSFVSADNMPEYVKGAFISMEDERFYNHHGFDLKGTTRALFSTISDRDVQGGSTITQQVVKNYFYDNDRSFTRKVKELFVAHRVEKQYNKNEILSFYLNNIYFGDNQYTLEGAANHYFGTTVNKNSTTMSHITVLQSAILASKVNAPSVYNINN | failed |
| FYTPKAVVQLVVELIDPRPGHSVYDPTCGSGGMLVESAHHVSGLPDGTLMGKPNVLLYGQEKNLGTWAIAKLNLYLHNMHASIERGDTLVEPKHLDGDYLKTFDRVIANPPFSAKSWWTPLELSNENEQENGKKVKAPNYKQVSDPYGRLVYGVPPRGYADLAFAQHMLASLKADGRMGVILPHGVLFRSGEEGKIREGLLFGTGAASGNQPGDVIEAIVGLPSALFYNTGIPACVLILNKQKPSALKDKVIIIDGSRDYLEGKAQNSLHAEDILRIVSTH | failed |
| FYTPSFITSYMCKESITPIVLDKFNAIYQWDCENLKALRGEIDRNFSNEKAKEYLNTLLTLRICDPAVGSGHFLVSALNEMVRVAYELGLIASLYRYDLKLENDEIIIHHTPTGEIFNYIKPDSENDPHHHIQKELFNLKKSIIENCLFGVDINPNSCEITKLRLWIELLKYSYYIFEKGKNTNALETLPNIDINIKCANSLISRFALKDKALLKSEKNKNLEYSIAEYKELVKIYKDPKILETLTHPIKDSNAVRKYAKERLYQELKQNPNKDFKKALNDRIEKIKKAFKLTLNPPPKELKFKKFLKEHLELYGKSILEEANYNGLELEALALEKQMANLFFDYRPYPKLDKSDKVVGLEHFNRYVLTSYKDLQDENERYANALEWRFEFPEVLDDEGDFSGFDCIIGNPPYIRQEHIKDLKPLLEKQYQDFYNSTADIYTYFFALAFHLLKEKGFSAFITSNKYTRAKYGAKLREWLLKKTTIVSYMELNALKVFESAAVDTSIIHFIKQTPSKESEFKYYEPTPNDKDDLKSTPHLLMKQNVLST | failed |
| GDETGVMDSLLEALQSGAAFRRKRGPRQANRKAGCAVTSLLASELTKDDAMAAVPAKVSKNSETFPTILEEAKELVGRAS | failed |
| GDGEEYTFWDPEYAGLQNGLKAVLPNAHNYITQFSANERRYIVYSTSSTQPGTYYFGDRDEKVLFPIAERYSQLSTEQLADTQYLSYEARDKLKIDAYLTVPKGFKAKHLPTIIFPHGGPISYDSNDFDYWAQFFANRGYAVFRMNFRGSAGYGYEFMKAGLKSWGLEMQNDVEDGTRYLINQGISDPQRICIVGASYGGYAALMGAAMTPDLYRCAVSVAGVTDVANLVRSSRRFTNYEVVKEQIGDDFNVLYERSPISKADKITIPVLLLHGDKDRVVKVQHSREMFDELKSRKKNVEYIELENGGHYLSNNDHRLTTFKALDKFLADNLK | failed |
| GGGTRFALVAGTTETAGRAGISAAGADPELMSVTPAADAELVTYGTPVRTDVTPVSPSGCPTPALVTRAAREVLGFDVTVVDGGLAEKTGAPTVSVGARPGKDIAEQDPVSTAHGAFAAARQFGQSLPADELYLGETIPGGTTTALGVLRALGEDGMVSSSLPENPTAQKSEVVAEGLQASSLEPGDAANEPKRAVRRMGDPVLATLAGLTAGAVESDTAVTLAGGSQCVAVAALVRHGGYEGPLGLATTSYVADDESADVRASVDRLDLDLTVTDPGFDRSDHVAMERFVAGEAKEGVGMGGALALADRAGI | failed |
| GKKDKEKIIDDFKVAVVTQPLSENKVQYNMVEEMAKEYEEENKIDKDKDGQTKVKQTIKHVVLPENFTSNIDSAINKIVKLADDKEVQAIVVSTDQAGLLPALQKVKEKRPEIITISAPMGDDKNQLSQFVDVNLGVSAEERGKVLAERSKEMGAKAFIHYASTDDLKDVNIAKRLEMIKETCKNIGLPFVQVNTPNINTEEDKNKVKQFLNEDIEKQVKKYGKDINVFGVNEYMDEVILTKALELKYIVAEQSNPSPIQTYPSVMGLKISEKDAQNYDKINDMISEKAKAFGMSNRLGGYPMPMDAFLPSLAIYLATEMVKQDLTQEDVCDPDYLEAFTELRFGIGSEFTPLTEVLYNYQSVILSQLIY | not failed |
| GLQAEWMQMSSLGTVDAPNFIVGNPWDDKLIFKLLSGLSKPVSSYPNTFEWQCKLPAIKPKTEFQLGSKLVYVHHLLGEGAFAQVYEATQGDLNDAKNKQKFVLKVQKPANPWEFYIGTQLMERLKPSMQHMFMKFYSAHLFQNGSVLVGELYSYGTLLNAINLYKNTPEKVMPQGLVISFAMRMLYMIEQVHDCEIIHGDIKPDNFILGNGFLEQDDEDDLSAGLALIDLGQSIDMKLFPKGTIFTAKCETSGFQCVEMLSNKPWNYQIDYFGVAATVYCMLFGTYMKVKNEGGECKPEGLFRRLPHLDMWNEFFHVMLNIPDCHHLPSLDLLRQKLKKVFQQHYTNKIRALRNRLIVLLLECKRSRK | failed |
| GMFGLVFNTRRATFADEKVREGLSYALDFEWLNRNILGGSFKRTQSYWQNSPLGAYGNAADERELALLGDAAKTMPAELLAGTYAMPTTDGTGADRKVLKLAVDKLKEAGYSIKNGKMSDANGRQLAFEIMTQNPAQERIALAYQRSLNLIGVAMGIRSVDDGQYQARSNSFDYDMIIRSLPSSLSPGMEQLNRWNSLSRDAQGSFNYAGVANPDIDRMIEALLQARSTEDFQAAVRAYDRLLVAGHYIIPLYYIG | failed |
| GMQGYFFNTRRDLFKDIRVREALSYAFDFEWSNKNLFFGQYTRTKSFFDNSELASFGTPSPQEREWLTPFKEQLPEGIFDQPFTLPTTKGDGNIRPQLKRAQQLLKEAGYEIKNKKLIHTTTGQPFVFELLLLSPAMERVALPFKRNLATLGIEMKIRTIDLTQYINRLREFDYDMIVGVIGQSLSPGNEQRYYWHSSSKDERGSKNYAGIDHPAVDRLVEMVVNAKDRRELVDYTRALDRVLLWNHYVIPHFHNR | not failed |
| GNIEAALFGLIALYAQTKVIDSIIYGGDAGSMATIVTGNPDGIAAKVIYELDRTATVLPAKGAYSRKDTSVLLCTVRKSQFVKLKRIVYEEDPDAFVMVTETSEVLGLGFRAFKDSL | failed |
| GNPEIKGRRRQIAQEIAYEDTSSQIKHASAVVSNPKDIAVAIGYMPEKYKAPWIIAMGVNLRAKRIIAEAEKYGVPIMRNVPLAHQLLDEGKELKFIPETTYEAVGEILLYITSLNAQNLENKNINQFDNL | not failed |
| GPPSRRSENRVVVSGLPPSGSWQDLKDHMREAGDVCYADVYRDGTGVVEFVRKEDMTYAVRKLDNTKFRSHEGETAYIRVKVDGPRSPSYGRSRSSGPSSG | not failed |
| GQDTGEDNLAIKGITTLNDLTMVNVSGPGMKGMVGMASRVFGAMSSAGVSIVLITQSSSEYSISFCIEADDKLKAQQVLADAFELELKDGLLEPVDFIDDVSIVTLVGDGMRTSRGVASRFFSSLAEVNVNIVAIAQGSSERAISAVIPEDKISEAIKACHENLFNSKYF | not failed |
| GQDYLDIIGRLLPVLPYNLAIIGADGQVLLMNPPMSRITGMSLRQFVMYPSDWVVQEDKAAVADAVRRYSSGRALSGEISVRLIAKPEETVILTLTGIRHLGESALMISLQESASENEIKQQMAQTTRMQAIGQLAGGVAHDFNNILTAI | failed |
| GQLSIKLWFDKVGHQLIVTILGAKDLPSREDGRPRNPYVKIYFLPDRSDKNKRRTKTVKKTLEPKWNQTFIYSPVHRREFRERMLEITLWDQARVREEESEFLGEILIELETALLDDEPHWYKLQTHD | not failed |
| GRDLLLAVDVSGSMDYRDMRWQDDEISRLELIKKLFGDFIEDRRGDRVGLILFGSQAYLQAPLTFDRHTVRVWLDEAQIGIAGKNTAIGDAIGLAVKRLRQRPAESRVLVLITDGANTGGQIAPQIAAQLAAEQQVKIYTIGIGADPQQGGVPGLFGFNPGLDLDEPTLRGIAESTGGEYFRARSSAELESISATLDRLEPVA | failed |
| GREQMASFESAYVALSRMKQHVQVYTDNREGWIKAIKNSPEKATAHDILEPRNDRAVKTADLLFGRARPLDETAAGRAALQQSGLAQGSSPGKFISPGKKYPQPHVALPAFDKNGKAAGIWLSPLTDRDGRLEAIGGEGRIMGNEDARFVALQNSRNGESLLAGNMGEGVRMARDNPDTGVVVRLAGDDRPWNPGAMTGGRVWAEPAPVAPVPQAGADIILPPEVLAQRAAEEQQRREMEKKAEQTAREMAGEARKAG | failed |
| GRKVGFRKGPRPGAGPREGGFRNDGPRGEGGYRNDGPRGEGGYRNDGPRGEGPRNEGPRGEGYRNDGPRGEGFRGPRFNNGPSNGYENRQDNNRFGEKRRSAQKPLKVDDEAQFPTLC | failed |
| GSAEILVPEVYHGPGKRGTGFYNADQKINRDITIEFIKKMGIRNVLDGFGGTGIRGIRISKETDSAVTISEVSPDSYRLIRDNVERNGSQASVINDSFECVLQHGAYEYVDVDPYGSPVPYLDAALMGVKRNGFLGVTATDQSALTGSVPHKTRIRYDALIKNDTFRHEMGIRLLIGYMAKRAASLGRFIDPLISIWHGHYYRVFVRVRKGFEGAGRMMQNLGYVNKHNLLSGIYQDMDEGPVWKGNLQDNAVAEAVLASAGHKAFNPEENRLLFCDLTDIARARHTSLPDIESVIDALSSSGHAASRTMFSPTGIKTDASCDLVESLMMDTLHRRS | failed |
| GSAQEEQSANEVAVSYSKSLKAAEMDSLQLPVDADGYITIFDGKTFNGWRGYGKDRVPSKWTIEDGCIKFNGSGGGEAQDGDGGDLIFAHKFKNFELEMEWKVSKGGNSGIFYLAQEVTSKDKDGNDVLEPIYISAPEYQVLDNDNHPDAKLGKDNNRQSASLYDMIPAVPQNAKPFGEWNKAKIMVYKGTVVHGQNDENVLEYHLWTKQWTDLLQASKFSQDKWPLAFELLNNCGGENHEGFIGMQDHGDDVWFRNIRVKVLD | not failed |
| GSDSSLFETYNVELVRKDGQSLGIRIVGYVGTSHTGEASGIYVKSVIPGSAAYHNGHIQVNDKIVAVDGVNIQGFANHDVVEVLRNAGQVVHLTLVRRKTSSSTSPLEPPSDRGTV | not failed |
| GSESFDILTDPAQAKEVGTALGIFHQLLSDLSPSQLVDTLPGFHHTPIYLQQYQRALAQNPKLTGSLGPEINHCQRVIKTWLDQCGVLETAKAQGQLPLRLMHGDPKVNNILFDRQSGKAVSVIDLDTTKPGLIHYDLGDCLRSGCNLLGEETENWSAVEFDLDLCRAILEGYLPQCQHFLTAADYDYLCPAIVLISFELGLRFFTDYLNGDRYFKVKYPEHNLIRALVQFQLASHIQSQEDAIRRMIEDIRG | failed |
| GSHMLGGKGRPSGVGGYRILVTTSRRPSPRIRSFVKDLSATIPGAFRFTRGHYSMEELAREAIIRGADRIVVVGERRGNPGIIRVYAVEGPERPDNIVSFIVKGVSLSRERRWGLPSLRGGEVLVARPLDSGVAVEFADAFVIAFHARLKPPEAAGYVEAVIESLDARTVAVTFRYGGAPVGPMLRLGKPAEMVKRGRRV | not failed |
